Laboratory results: patent publication US20250296971A1, “GASTRIC INHIBITORY PEPTIDE RECEPTOR LIGANDS” (priority 2021, published 2025)
*1 amine or outer side, *2 acyl side, *3 side chain or, on linkers, in order; H or OH if unused. Bridges are numbered along the chain shown (N, C = ends). Primed or numbered codes have the meaning given here. [ ]: non-standard residue; d: D form. The star is where a group is joined. Ttds = 1,13-diamino-4,7,10-trioxatridecan-succinamic acid, NCCCOCCOCCOCCCNC(=O)CCC(=O)*; Pro(trans-4-NH2) = O=C([C@@H]1C[C@@H](N[*:3])CN1[*:1])[*:2]; DOTA = O=C(O)CN1CCN(CC(=O)O)CCN(CC(=O)*)CCN(CC(=O)O)CC1; Trp(5-Cl) = N[C@@H](Cc1c[nH]c2ccc(Cl)cc12)C(=O)O; Phe(3,5-Cl2) = N[C@@H](Cc1cc(Cl)cc(Cl)c1)C(=O)O; Pyridine(2,6-diCH2) = c1cc(C[*:1])nc(C[*:2])c1; Trp(7-aza) = N[C@@H](Cc1c[nH]c2ncccc12)C(=O)O; 2Lut″ = 2,6-lutidylidene linking two thiols; Phe(2-Cl) = N[C@@H](Cc1ccccc1Cl)C(=O)O; 1Nal = N[C@@H](Cc1cccc2ccccc12)C(=O)O; mXylylene = c1cc(C[*:1])cc(C[*:2])c1; Hyp = O=C(O)[C@@H]1C[C@@H](O)CN1; hLeu = CC(C)CC[C@H](N)C(=O)O; 2Lut(3) = 2,6-lutidylidene; Api = NC1(C(=O)O)CCNCC1; Thp = NC1(C(=O)O)CCOCC1; Aib = CC(C)(N)C(=O)O

B1: Ac-Asp-Egn-5Clw-Hyp-Glu-leu-[Cys(2Lut)-Thp-Leu-Ile-Cys]-NH2 (peptide)
peptide: Ac-D[Phe(3,5-Cl2)][Trp(5-Cl)][Hyp]E[dL]C[Thp]LIC-NH2
modifications: linker 7-11 via Pyridine(2,6-diCH2)
SMILES: CC[C@H](C)[C@@H]1NC(=O)[C@H](CC(C)C)NC(=O)C2(CCOCC2)NC(=O)[C@@H](NC(=O)[C@@H](CC(C)C)NC(=O)[C@H](CCC(=O)O)NC(=O)[C@@H]2C[C@@H](O)CN2C(=O)[C@H](Cc2c[nH]c3ccc(Cl)cc23)NC(=O)[C@H](Cc2cc(Cl)cc(Cl)c2)NC(=O)[C@H](CC(=O)O)NC(C)=O)CSCc2cccc(n2)CSC[C@@H](C(N)=O)NC1=O
B2: Ac-Asp-Trp-5Clw-Hyp-Glu-leu-[Cys(2Lut)-Thp-Leu-Phe-Cys]-NH2 (peptide)
peptide: Ac-DW[Trp(5-Cl)][Hyp]E[dL]C[Thp]LFC-NH2
modifications: linker 7-11 via Pyridine(2,6-diCH2)
SMILES: CC(=O)N[C@@H](CC(=O)O)C(=O)N[C@@H](Cc1c[nH]c2ccccc12)C(=O)N[C@@H](Cc1c[nH]c2ccc(Cl)cc12)C(=O)N1C[C@H](O)C[C@H]1C(=O)N[C@@H](CCC(=O)O)C(=O)N[C@H](CC(C)C)C(=O)N[C@H]1CSCc2cccc(n2)CSC[C@@H](C(N)=O)NC(=O)[C@H](Cc2ccccc2)NC(=O)[C@H](CC(C)C)NC(=O)C2(CCOCC2)NC1=O

Each molecule was assayed against human Gastric Inhibitory Peptide Receptor (GIPR) (human) (UniProt P48546) (assay: FACS competition vs biotinylated GIP-057 on CHO-K1-hGIPR cells; category B: pIC50 7.1-8.0).
Sequence of human Gastric Inhibitory Peptide Receptor (GIPR) (human) (P48546 22-466 limits assumed): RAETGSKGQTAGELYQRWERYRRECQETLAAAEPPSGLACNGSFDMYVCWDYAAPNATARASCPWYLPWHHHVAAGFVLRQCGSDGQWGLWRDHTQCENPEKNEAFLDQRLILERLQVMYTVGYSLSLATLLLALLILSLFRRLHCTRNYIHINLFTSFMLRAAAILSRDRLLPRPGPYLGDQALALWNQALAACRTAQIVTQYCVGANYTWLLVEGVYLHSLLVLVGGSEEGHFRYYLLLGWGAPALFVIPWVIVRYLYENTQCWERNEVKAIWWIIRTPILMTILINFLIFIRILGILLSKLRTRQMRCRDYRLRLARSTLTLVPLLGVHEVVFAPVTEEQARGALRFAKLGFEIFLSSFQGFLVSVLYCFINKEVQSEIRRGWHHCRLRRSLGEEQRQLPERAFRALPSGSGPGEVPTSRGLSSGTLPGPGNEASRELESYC

pIC50, 7.1 to 8 pic50:
Ac-Asp-Trp-5Clw-Hyp-Glu-leu-[Cys(2Lut)-Apc(DOTA)-Leu-Phe-Cys]-NH2 (peptide)
{DOTA-Ttds}-D[Phe(2-Cl)][Trp(5-Cl)][Hyp]E[dL]C[Thp]LIC-NH2 (linker 7-11 via 2Lut(3)) [DOTA-Ttds-Asp-Ocf-5Clw-Hyp-Glu-leu-[Cys(2Lut)-Thp-Leu-Ile-Cys]-NH2]
Ac-DW[Phe(2,3-Cl2)][Hyp]E[dL]C[Thp]LIC-NH2 (linker 7-11 via 2Lut″) [Ac-Asp-Trp-Egp-Hyp-Glu-leu-[Cys(2Lut)-Thp-Leu-Ile-Cys]-NH2]
Ac-DW[1Nal][Pro(trans-4-NH2)](DOTA)E[hLeu]C[Aib]LIC-NH2 (linker 7-11 via mXylylene) [Ac-Asp-Trp-1Ni-Tap(DOTA)-Glu-Hle-[Cys(3MeBn)-Aib-Leu-Ile-Cys]-NH2]
Ac-D[Phe(2-Cl)][Trp(5-Cl)][Pro(trans-4-NH2)](DOTA)E[dL]C[Thp]LIC-NH2 (linker 7-11 via Pyridine(2,6-diCH2)) [Ac-Asp-Ocf-5Clw-Tap(DOTA)-Glu-leu-[Cys(2Lut)-Thp-Leu-Ile-Cys]-NH2]
B1
Ac-DW[Trp(7-aza)][Hyp]E[dL]C[Thp]LIC-NH2 (linker 7-11 via 2Lut″) [Ac-Asp-Trp-7Nw-Hyp-Glu-leu-[Cys(2Lut)-Thp-Leu-Ile-Cys]-NH2]
B2
Ac-DW[Trp(5-Cl)][Pro(trans-4-NH2)](DOTA)E[dL]C[Thp]LFC-NH2 (linker 7-11 via 2Lut″) [Ac-Asp-Trp-5Clw-Tap(DOTA)-Glu-leu-[Cys(2Lut)-Thp-Leu-Phe-Cys]-NH2]
{DOTA-Ttds}-DW[Phe(3,5-Cl2)][Hyp]E[dL]C[Thp]LIC-NH2 (linker 7-11 via Pyridine(2,6-diCH2)) [DOTA-Ttds-Asp-Trp-Egn-Hyp-Glu-leu-[Cys(2Lut)-Thp-Leu-Ile-Cys]-NH2]
Ac-DW[Trp(5-Cl)][Hyp]P[dL]C[Thp]LIC-NH2 (linker 7-11 via Pyridine(2,6-diCH2)) [Ac-Asp-Trp-5Clw-Hyp-Pro-leu-[Cys(2Lut)-Thp-Leu-Ile-Cys]-NH2]
Ac-DW[Trp(5-Cl)][Hyp]W[dL]C[Thp]LIC-NH2 (linker 7-11 via Pyridine(2,6-diCH2)) [Ac-Asp-Trp-5Clw-Hyp-Trp-leu-[Cys(2Lut)-Thp-Leu-Ile-Cys]-NH2]
Ac-D[Phe(2-Cl)][Trp(5-Cl)][Hyp]E[dL]C[Api](DOTA)LIC-NH2 (linker 7-11 via Pyridine(2,6-diCH2)) [Ac-Asp-Ocf-5Clw-Hyp-Glu-leu-[Cys(2Lut)-Apc(DOTA)-Leu-Ile-Cys]-NH2]
Ac-DW[Trp(5-Cl)][Hyp]F[dL]C[Thp]LIC-NH2 (linker 7-11 via Pyridine(2,6-diCH2)) [Ac-Asp-Trp-5Clw-Hyp-Phe-leu-[Cys(2Lut)-Thp-Leu-Ile-Cys]-NH2]
{DOTA-Ttds}-DW[Trp(5-Cl)][Hyp]E[dL]C[Thp]LFC-NH2 (linker 7-11 via 2Lut(3)) [DOTA-Ttds-Asp-Trp-5Clw-Hyp-Glu-leu-[Cys(2Lut)-Thp-Leu-Phe-Cys]-NH2]
Ac-DW[Phe(3,5-Cl2)][Hyp]E[dL]C[Thp]LIC-NH2 (linker 7-11 via 2Lut″) [Ac-Asp-Trp-Egn-Hyp-Glu-leu-[Cys(2Lut)-Thp-Leu-Ile-Cys]-NH2]
Ac-DW[Trp(5-Cl)][Hyp]E[dL]C[Thp]LFC-{(dK)(DOTA)-NH2} (linker 7-11 via Pyridine(2,6-diCH2)) [Ac-Asp-Trp-5Clw-Hyp-Glu-leu-[Cys(2Lut)-Thp-Leu-Phe-Cys]-lys(DOTA)-NH2]
